Laboratory results as given in PMC8999356, “In Vitro One-Pot 3-Hydroxypropanal Production from Cheap C1 and C2 Compounds” (International Journal of Molecular Sciences, 2022).

Experiments:
[1] = substrate: C=O; test: aldol condensation, 3-HPA quantified by HPLC after O-benzylhydroxylamine derivatisation, Michaelis-Menten fit; type: biochemical, Thermotoga maritima; details: co-substrate acetaldehyde, 20 mM Kpi pH 7.0, 40 °C
[2] = substrate: CC=O; test: as above; type: biochemical, Thermotoga maritima; details: co-substrate formaldehyde, 20 mM Kpi pH 7.0, 40 °C

B1: DERATma (Thermotoga maritima MSB8) (protein)
chain: MIEYRIEEAVAKYREFYEFKPVRESAGIEDVKSAIEHTNLKPFATPDDIKKLCLEARENRFHGVCVNPCYVKLAREELEGTDVKVVTVVGFPLGANETRTKAHEAIFAVESGADEIDMVINVGMLKAKEWEYVYEDIRSVVESVKGKVVKVIIETCYLDTEEKIAACVISKLAGAHFVKTSTGFGTGGATAEDVHLMKWIVGDEMGVKASGGIRTFEDAVKMIMYGADRIGTSSGVKIVQGGEERYGG
Km [1]: 2.41 mM | kcat [1]: 0.00817 s⁻¹ | Km [2]: 6.95 mM | kcat [2]: 0.0085 s⁻¹
